Where a chain is given by its changes, count along the chain named.
Key:
[1] = molecular target: T1, AdpA (Streptomyces coelicolor) (UniProt Q9L062); assay: EMSA; settings: EMSA: 20 mM Tris-HCl, 2 mM EDTA, 20 mM KCl, 0.5 mM DTT, pH 8.0, 30 C 20 min, 16.5-22 nM probe; FP: 10 mM Tris-HCl, 75 mM NaCl, pH 7.5, 37 C 15 min, 1 nM FAM …
T1 sequence: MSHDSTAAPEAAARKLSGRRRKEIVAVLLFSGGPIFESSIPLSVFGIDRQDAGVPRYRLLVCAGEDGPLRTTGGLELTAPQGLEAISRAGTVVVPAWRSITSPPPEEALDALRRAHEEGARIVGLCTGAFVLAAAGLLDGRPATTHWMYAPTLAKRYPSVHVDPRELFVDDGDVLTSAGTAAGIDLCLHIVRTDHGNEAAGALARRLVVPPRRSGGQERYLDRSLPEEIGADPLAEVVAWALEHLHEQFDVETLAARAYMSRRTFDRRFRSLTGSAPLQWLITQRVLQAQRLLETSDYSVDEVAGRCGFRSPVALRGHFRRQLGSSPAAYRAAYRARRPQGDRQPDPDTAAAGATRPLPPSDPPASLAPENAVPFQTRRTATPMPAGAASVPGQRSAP

[2] = molecular target: T2, AdpA C62S C62S (Streptomyces coelicolor) (UniProt Q9L062); assay: EMSA; settings: EMSA: 20 mM Tris-HCl, 2 mM EDTA, 20 mM KCl, 0.5 mM DTT, pH 8.0, 30 C 20 min, 16.5-22 nM probe; FP: 10 mM Tris-HCl, 75 mM NaCl, pH 7.5, 37 C 15 min, 1 nM FAM …
T2 sequence: T1 sequence with C62S

Row | Sequence | binding [1] | binding [2]
1 | ACACATCCCGCATCGGTGATTACATGGACACGTCCCAATAAGTTGAATCTCATCTGCGCCCCCGTCGAGATTCTCCGTCTCCTGGGGGCGACAATAACAGGCCTACTCAACAGATTTCAATGTGCTTGCCGTCACAAGCGATCTCCTATTGATCAAAAATTAATCAGTGCAGCGAGCTGCACTGATTAATTTTTGCTGGATTTTACCGAGAGGCAGTGGTCGAGGCTTCCGAATCAATAGAATCTGGCATTCCTGATACGGCTGGGTCC (double strand) [PactII-4 probe] | binds | 
2 | GCACTCCAGTCGGTTACCCAGCCCATACCGGCGCCGTCCTCTCCCGAATCGAGGCTCCCCCACGGCGGCAGCGGCATATTCACCGCCGCCAGTTGAGGACGTTACGGAAGGTGGGCACAGCGCAACACCCCCTTCGGGCCCAATCTTGAATGGCCCGAACGGACTATGGGTAAGCGGCAGATCACCCGGGGGAGTGAGCTGGCGACATGCGCGACGATCCCGACATTCAGGTCATCTCTGTTGCGCCACAACGGACACCGATTGACACACGAGGCGGATTCGGA (double strand) [PwblA probe] | binds | binds

Source: publication PMC9239190
